Results taken from patent publication US20230312704A1 (SHANGHAI ESCUGEN BIOTECHNOLOGY, published 2023).

T1: mouse CLDN18.2 (mCLDN18.2) (mouse, UniProt P56857 10-264)
T1 construct: Stably expressed on HEK293 cells; the stomach-type isoform is meant; also called mouse mhCLDN18.2; m hCLDN18.2
T1 chain: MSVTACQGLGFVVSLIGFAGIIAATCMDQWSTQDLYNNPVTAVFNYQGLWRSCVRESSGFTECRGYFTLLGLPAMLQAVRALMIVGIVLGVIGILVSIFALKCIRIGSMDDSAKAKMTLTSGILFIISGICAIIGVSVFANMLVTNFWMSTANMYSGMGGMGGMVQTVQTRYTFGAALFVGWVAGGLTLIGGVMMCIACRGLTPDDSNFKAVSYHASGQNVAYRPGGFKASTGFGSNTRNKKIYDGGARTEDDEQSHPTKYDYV


What was measured:
[1] = molecular target: T2, human CLDN18 splice variant 2 (Claudin 18.2, hCLDN18.2) (human); assay: IHC with hybridoma supernatant on FFPE sections of HEK293-hCLDN18.2 cell blocks
T2 construct: The same entry is used for CLDN18.2 in human stomach and gastric cancer FFPE tissue (IHC); also called HEK293-hCLDN18.2; HEK293-CLDN18.2

[2] = molecular target: T2, human CLDN18 splice variant 2 (Claudin …); assay: flow cytometry on HEK293-hCLDN18.2 cells, paraformaldehyde-fixed and non-fixed
[3] = molecular target: T3, mouse CLDN18.1 (mCLDN18.1) (mouse, UniProt P56857 1-264); assay: flow cytometry on HEK293-mCLDN18.1 cells, paraformaldehyde-fixed and non-fixed
T3 construct: Stably expressed on HEK293 cells; the lung-type isoform is meant; also called HEK293-mCLDN18.1

[4] = molecular target: T1, mouse CLDN18.2 (mCLDN18.2); assay: flow cytometry on HEK293-mCLDN18.2 cells, paraformaldehyde-fixed and non-fixed
[5] = molecular target: T2, human CLDN18 splice variant 2 (Claudin …); assay: flow cytometry on HEK293-hCLDN18.2 cells, 3-fold dilutions from 10 µg/mL, 8 points

Binder	binding result [1]	binding result [5]	other results
5-I10 (mouse hybridoma clone, supernatant) (antibody, V domains shown, Antibody as secreted by the hybridoma; also called subclones 5-I10-33 and 5-I10-18) VH: EIQLQQSGAELVKPGASVKISCKAPGYSFTDYNMNWVKQSHGKSLEWIGNINSYYGSTSYNQKFKGKATLTVDRSSSTAYMQLNSLTSEDSAVYYCTNFDRGNSFPYWGHGTLVTVSA VL: DIVMTQSPSSLTVTVGEKVTMTCKSSQSLLNSGNQKNYLTWYQQKPGQSPKLLIYWASTRESGVPERFTGRGSGTDFTLTISSVQAEDLAVYYCQNGYSYPFTFGSGTNLEIK	binds		
5-G17 (mouse hybridoma clone, supernatant) (antibody, V domains shown, Antibody as secreted by the hybridoma; also called subclones 5-G17-30 and 5-G17-6) VH: EVKLVESGGGLVKPGGSLKLSCAASGFTISDYGMAWVRQAPGKGPEWVAFISNLAYSIHYVDTVTGRFTISRENAKNTLYLEMRSLRSEDTAMYYCARMYYGNALDYWGQGTSVTVSS VL: DIVMTQSPSSLTVTTGEKVTMSCKSSQNLLNSGNQKNYLTWYQQKPGQPPKLLIYWASTRESGVPDRFTGSGSGTDFTLTISSVQAEDLAVYYCQNDYSFPLTFGAGTKLELK	binds		
human-mouse chimeric positive control antibody 163E12 (antibody, human IgG1, kappa, V domains shown, Human-mouse chimeric antibody expressed in CHOS cells and purified on Protein A. It was detected with an anti-human Fc secondary antibody; also called home-made positive control (Benchmarker) chimeric antibody 163E12) VH: QIQLVQSGPELKKPGETVKISCKASGYTFTNYGMNWVKQAPGKGLKWMGWINTNTGEPTYAEEFKGRFAFSLETSASTAYLQINNLKNEDTATYFCARLGFGNAMDYWGQGTSVTVSS VL: DIVMTQSPSSLTVTAGEKVTMSCKSSQSLLNSGNQKNYLTWYQQKPGQPPKLLIYWASTRESGVPDRFTGSGSGTDFTLTISSVQAEDLAVYYCQNDYSYPLTFGAGTKLELKR			binding result [2]: binds; binding result [3]: no binding; binding result [4]: binds
purified recombinant mouse monoclonal antibody 5-G17 (mouse IgG2a, kappa) (antibody, V domains shown, Expressed in HEK293 cells and purified on Protein A; also called recombinant and purified mouse IgG2a type 5-G17) VH: EVKLVESGGGLVKPGGSLKLSCAASGFTISDYGMAWVRQAPGKGPEWVAFISNLAYSIHYVDTVTGRFTISRENAKNTLYLEMRSLRSEDTAMYYCARMYYGNALDYWGQGTSVTVSS VL: DIVMTQSPSSLTVTTGEKVTMSCKSSQNLLNSGNQKNYLTWYQQKPGQPPKLLIYWASTRESGVPDRFTGSGSGTDFTLTISSVQAEDLAVYYCQNDYSFPLTFGAGTKLELKR		binds	
purified recombinant mouse monoclonal antibody 5-I10 (mouse IgG2a, kappa) (antibody, V domains shown, also called recombinant and purified mouse IgG2a type 5-I10) VH: EIQLQQSGAELVKPGASVKISCKAPGYSFTDYNMNWVKQSHGKSLEWIGNINSYYGSTSYNQKFKGKATLTVDRSSSTAYMQLNSLTSEDSAVYYCTNFDRGNSFPYWGHGTLVTVSA VL: DIVMTQSPSSLTVTVGEKVTMTCKSSQSLLNSGNQKNYLTWYQQKPGQSPKLLIYWASTRESGVPERFTGRGSGTDFTLTISSVQAEDLAVYYCQNGYSYPFTFGSGTNLEIKR		binds	
